Results as given in IntAct's records for PubMed 16996049.

Molecular target: par6_caeel par-6 (UniProt Q9NAN2)
Sequence (Q9NAN2 whole entry): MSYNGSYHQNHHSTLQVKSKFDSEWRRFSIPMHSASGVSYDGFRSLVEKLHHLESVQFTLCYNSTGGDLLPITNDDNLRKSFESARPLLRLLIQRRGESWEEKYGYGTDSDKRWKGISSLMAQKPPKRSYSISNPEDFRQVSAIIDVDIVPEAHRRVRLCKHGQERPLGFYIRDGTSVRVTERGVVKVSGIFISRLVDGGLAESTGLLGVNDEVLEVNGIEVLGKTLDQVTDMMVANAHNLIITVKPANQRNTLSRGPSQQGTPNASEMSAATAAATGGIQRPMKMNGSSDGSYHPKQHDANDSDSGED

Chain of Cell division control protein 42 homolog (Caenorhabditis elegans), Q05062 T17N (Q05062 whole entry T17N): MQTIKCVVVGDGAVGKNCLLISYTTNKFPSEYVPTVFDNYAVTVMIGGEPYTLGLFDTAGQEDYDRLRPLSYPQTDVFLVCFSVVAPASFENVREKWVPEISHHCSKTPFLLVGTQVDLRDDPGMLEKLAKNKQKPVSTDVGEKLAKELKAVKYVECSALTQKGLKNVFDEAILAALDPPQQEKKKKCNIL

With “Cell division control protein 42 homolog (Caenorhabditis elegans), Q05062 T17N” the “effect of a mutation on the interaction” value was “disrupting interaction”.
